Reference: patent publication US20230331827A1 (MAXION THERAPEUTICS, published 2023)

Molecular target: human cMET (human, UniProt P08581 25-932)
Experiment: phage TRF on cMET

Sequence of human cMET (P08581 25-932 limits assumed): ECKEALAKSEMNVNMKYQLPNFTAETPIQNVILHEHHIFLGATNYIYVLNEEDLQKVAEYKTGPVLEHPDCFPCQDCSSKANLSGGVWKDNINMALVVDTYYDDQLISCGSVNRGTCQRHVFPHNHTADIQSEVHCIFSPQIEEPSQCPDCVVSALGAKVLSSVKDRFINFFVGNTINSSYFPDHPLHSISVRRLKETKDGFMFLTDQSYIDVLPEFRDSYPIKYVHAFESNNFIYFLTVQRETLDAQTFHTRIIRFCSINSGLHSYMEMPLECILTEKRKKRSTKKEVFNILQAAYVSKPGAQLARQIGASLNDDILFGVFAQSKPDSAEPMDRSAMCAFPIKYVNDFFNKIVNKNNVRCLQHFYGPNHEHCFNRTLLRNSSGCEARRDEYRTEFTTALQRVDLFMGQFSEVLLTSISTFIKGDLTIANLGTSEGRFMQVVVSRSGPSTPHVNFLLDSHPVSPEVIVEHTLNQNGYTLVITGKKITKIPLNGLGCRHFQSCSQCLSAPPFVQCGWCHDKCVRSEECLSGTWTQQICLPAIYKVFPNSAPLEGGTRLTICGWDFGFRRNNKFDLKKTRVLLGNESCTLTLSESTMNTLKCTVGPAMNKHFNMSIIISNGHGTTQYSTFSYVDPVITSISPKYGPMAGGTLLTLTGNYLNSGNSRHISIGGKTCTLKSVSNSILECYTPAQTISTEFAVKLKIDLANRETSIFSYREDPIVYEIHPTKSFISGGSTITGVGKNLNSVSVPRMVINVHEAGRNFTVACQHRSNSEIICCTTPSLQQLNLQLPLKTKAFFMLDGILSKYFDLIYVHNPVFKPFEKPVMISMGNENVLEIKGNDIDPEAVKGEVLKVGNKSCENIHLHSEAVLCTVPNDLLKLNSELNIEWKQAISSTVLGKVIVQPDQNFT

Row | Binder | TRF signal
1 | KB_A12_cMET_E11 (scFv, V domains shown) VH: EVQLVESGGGLVRPGGSLRLSCAASGFTFSSYAMSWVRQAPGKGLEWVSAISGSGGSTYYADSVKGRFTISRDNTKNSLYLQMTSLRADDTAFYYCVKDFGPGYGTGWFDYWGPGTLVTVSS VL: AVNWYQQLPGKAPKLLIYAAGRCAKKSGTGRCKQDSDCLAGCVCGPNGFCGANSGVSDRFSAAKSGTSASLAINGLRSEDEADYYCAAWDDSLNGYVFGTGTKLTVLG | 158000
2 | KB_A12_cMET_F10 (scFv, V domains shown) VH: EVQLVESGGGLVRPGGSLRLSCAASGFTFSSYAMSWVRQAPGKGLEWVSAISGSGGSTYYADSVKGRFTISRDNTKNSLYLQMTSLRADDTAFYYCVKDFGPGYGTGWFDYWGPGTLVTVSS VL: AVNWYQQLPGKAPKLLIYAAGRCRSLMSGTGRCKQDSDCLAGCVCGPNGFCGANSGVSDRFSAAKSGTSASLAINGLRSEDEADYYCAAWDDSLNGYVFGTGTKLTVLG | 51300
3 | KB_A12_cMET_E05 (scFv, V domains shown) VH: EVQLVESGGGLVRPGGSLRLSCAASGFTFSSYAMSWVRQAPGKGLEWVSAISGSGGSTYYADSVKGRFTISRDNTKNSLYLQMTSLRADDTAFYYCVKDFGPGYGTGWFDYWGPGTLVTVSS VL: AVNWYQQLPGKAPKLLIYAAGRCDRKAGTGRCKQDSDCLAGCVCGPNGFCGANSGVSDRFSAAKSGTSASLAINGLRSEDEADYYCAAWDDSLNGYVFGTGTKLTVLG | 116000
4 | KB_A12_cMET_H03 (scFv, V domains shown) VH: EVQLVESGGGLVRPGGSLRLSCAASGFTFSSYAMSWVRQAPGKGLEWVSAISGSGGSTYYADSVKGRFTISRDNTKNSLYLQMTSLRADDTAFYYCVKDFGPGYGTGWFDYWGPGTLVTVSS VL: AVNWYQQLPGKAPKLLIYAAGRCRGMTGVGRCKQDSDCLAGCVCGPNGFCGANSGVSDRFSAAKSGTSASLAINGLRSEDEADYYCAAWDDSLNGYVFGTGTKLTVLG | 54200
5 | KB_A12_cMET_G06 (scFv, V domains shown) VH: EVQLVESGGGLVRPGGSLRLSCAASGFTFSSYAMSWVRQAPGKGLEWVSAISGSGGSTYYADSVKGRFTISRDNTKNSLYLQMTSLRADDTAFYYCVKDFGPGYGTGWFDYWGPGTLVTVSS VL: AVNWYQQLPGKAPKLLIYAAGRCNKSGGTGRCKQDSDCLAGCVCGPNGFCGANSGVSDRFSAAKSGTSASLAINGLRSEDEADYYCAAWDDSLNGYVFGTGTKLTVLG | 62100
6 | KB_A12_cMET_H05 (scFv, V domains shown) VH: EVQLVESGGGLVRPGGSLRLSCAASGFTFSSYAMSWVRQAPGKGLEWVSAISGSGGSTYYADSVKGRFTISRDNTKNSLYLQMTSLRADDTAFYYCVKDFGPGYGTGWFDYWGPGTLVTVSS VL: AVNWYQQLPGKAPKLLIYAAGRCNRASGAGRCKQDSDCLAGCVCGPNGFCGANSGVSDRFSAAKSGTSASLAINGLRSEDEADYYCAAWDDSLNGYVFGTGTKLTVLG | 153000
7 | KB_A12_cMET_H02 (scFv, V domains shown) VH: EVQLVESGGGLVRPGGSLRLSCAASGFTFSSYAMSWVRQAPGKGLEWVSAISGSGGSTYYADSVKGRFTISRDNTKNSLYLQMTSLRADDTAFYYCVKDFGPGYGTGWFDYWGPGTLVTVSS VL: AVNWYQQLPGKAPKLLIYAAGRCAKRTGTGRCKQDSDCLAGCVCGPNGFCGANSGVSDRFSAAKSGTSASLAINGLRSEDEADYYCAAWDDSLNGYVFGTGTKLTVLG | 35400
8 | KB_A12_cMET_F02 (scFv, V domains shown) VH: EVQLVESGGGLVRPGGSLRLSCAASGFTFSSYAMSWVRQAPGKGLEWVSAISGSGGSTYYADSVKGRFTISRDNTKNSLYLQMTSLRADDTAFYYCVKDFGPGYGTGWFDYWGPGTLVTVSS VL: AVNWYQQLPGKAPKLLIYAAGRCGRASGTGRCKQDSDCLAGCVCGPNGFCGANSGVSDRFSAAKSGTSASLAINGLRSEDEADYYCAAWDDSLNGYVFGTGTKLTVLG | 98500
9 | KB_A12_cMET_E12 (scFv, V domains shown) VH: EVQLVESGGGLVRPGGSLRLSCAASGFTFSSYAMSWVRQAPGKGLEWVSAISGSGGSTYYADSVKGRFTISRDNTKNSLYLQMTSLRADDTAFYYCVKDFGPGYGTGWFDYWGPGTLVTVSS VL: AVNWYQQLPGKAPKLLIYAAGRCAKRSGTGRCKQDSDCLAGCVCGPNGFCGANSGVSDRFSAAKSGTSASLAINGLRSEDEADYYCAAWDDSLNGYVFGTGTKLTVLG | 95900
10 | KB_A12_cMET_G01 (scFv, V domains shown) VH: EVQLVESGGGLVRPGGSLRLSCAASGFTFSSYAMSWVRQAPGKGLEWVSAISGSGGSTYYADSVKGRFTISRDNTKNSLYLQMTSLRADDTAFYYCVKDFGPGYGTGWFDYWGPGTLVTVSS VL: AVNWYQQLPGKAPKLLIYAAGRCQRQSGTGRCKQDSDCLAGCVCGPNGFCGANSGVSDRFSAAKSGTSASLAINGLRSEDEADYYCAAWDDSLNGYVFGTGTKLTVLG | 98900
11 | KB_A12_cMET_G10 (scFv, V domains shown) VH: EVQLVESGGGLVRPGGSLRLSCAASGFTFSSYAMSWVRQAPGKGLEWVSAISGSGGSTYYADSVKGRFTISRDNTKNSLYLQMTSLRADDTAFYYCVKDFGPGYGTGWFDYWGPGTLVTVSS VL: AVNWYQQLPGKAPKLLIYAAGRCEKHSGTGRCKQDSDCLAGCVCGPNGFCGANSGVSDRFSAAKSGTSASLAINGLRSEDEADYYCAAWDDSLNGYVFGTGTKLTVLG | 64800
12 | KB_A12_cMET_F12 (scFv, V domains shown) VH: EVQLVESGGGLVRPGGSLRLSCAASGFTFSSYAMSWVRQAPGKGLEWVSAISGSGGSTYYADSVKGRFTISRDNTKNSLYLQMTSLRADDTAFYYCVKDFGPGYGTGWFDYWGPGTLVTVSS VL: AVNWYQQLPGKAPKLLIYAAGRCKAQSGSGRCKQDSDCLAGCVCGPNGFCGANSGVSDRFSAAKSGTSASLAINGLRSEDEADYYCAAWDDSLNGYVFGTGTKLTVLG | 119000
13 | KB_A12_cMET_G08 (scFv, V domains shown) VH: EVQLVESGGGLVRPGGSLRLSCAASGFTFSSYAMSWVRQAPGKGLEWVSAISGSGGSTYYADSVKGRFTISRDNTKNSLYLQMTSLRADDTAFYYCVKDFGPGYGTGWFDYWGPGTLVTVSS VL: AVNWYQQLPGKAPKLLIYAAGRCARLSGSGRCKQDSDCLAGCVCGPNGFCGANSGVSDRFSAAKSGTSASLAINGLRSEDEADYYCAAWDDSLNGYVFGTGTKLTVLG | 27900
14 | KB_A12_cMET_H01 (scFv, V domains shown) VH: EVQLVESGGGLVRPGGSLRLSCAASGFTFSSYAMSWVRQAPGKGLEWVSAISGSGGSTYYADSVKGRFTISRDNTKNSLYLQMTSLRADDTAFYYCVKDFGPGYGTGWFDYWGPGTLVTVSS VL: AVNWYQQLPGKAPKLLIYAAGRCHRMSGTGRCKQDSDCLAGCVCGPNGFCGANSGVSDRFSAAKSGTSASLAINGLRSEDEADYYCAAWDDSLNGYVFGTGTKLTVLG | 132000
15 | KB_A12_cMET_H04 (scFv, V domains shown) VH: EVQLVESGGGLVRPGGSLRLSCAASGFTFSSYAMSWVRQAPGKGLEWVSAISGSGGSTYYADSVKGRFTISRDNTKNSLYLQMTSLRADDTAFYYCVKDFGPGYGTGWFDYWGPGTLVTVSS VL: AVNWYQQLPGKAPKLLIYAAGRCPQMTGTGRCKQDSDCLAGCVCGPNGFCGANSGVSDRFSAAKSGTSASLAINGLRSEDEADYYCAAWDDSLNGYVFGTGTKLTVLG | 113000
16 | KB_A12_cMET_F05 (scFv, V domains shown) VH: EVQLVESGGGLVRPGGSLRLSCAASGFTFSSYAMSWVRQAPGKGLEWVSAISGSGGSTYYADSVKGRFTISRDNTKNSLYLQMTSLRADDTAFYYCVKDFGPGYGTGWFDYWGPGTLVTVSS VL: AVNWYQQLPGKAPKLLIYAAGRCKRLMSGAGRCKQDSDCLAGCVCGPNGFCGANSGVSDRFSAAKSGTSASLAINGLRSEDEADYYCAAWDDSLNGYVFGTGTKLTVLG | 59600
17 | KB_A12_cMET_E02 (scFv, V domains shown) VH: EVQLVESGGGLVRPGGSLRLSCAASGFTFSSYAMSWVRQAPGKGLEWVSAISGSGGSTYYADSVKGRFTISRDNTKNSLYLQMTSLRADDTAFYYCVKDFGPGYGTGWFDYWGPGTLVTVSS VL: AVNWYQQLPGKAPKLLIYAAGRCRKKSGANRCKQDSDCLAGCVCGPNGFCGANSGVSDRFSAAKSGTSASLAINGLRSEDEADYYCAAWDDSLNGYVFGTGTKLTVLG | 9480
18 | KB_A12_cMET_E07 (scFv, V domains shown) VH: EVQLVESGGGLVRPGGSLRLSCAASGFTFSSYAMSWVRQAPGKGLEWVSAISGSGGSTYYADSVKGRFTISRDNTKNSLYLQMTSLRADDTAFYYCVKDFGPGYGTGWFDYWGPGTLVTVSS VL: AVNWYQQLPGKAPKLLIYAAGRCPKRHTGTGRCKQDSDCLAGCVCGPNGFCGANSGVSDRFSAAKSGTSASLAINGLRSEDEADYYCAAWDDSLNGYVFGTGTKLTVLG | 95300
19 | KB_A12_cMET_G07 (scFv, V domains shown) VH: EVQLVESGGGLVRPGGSLRLSCAASGFTFSSYAMSWVRQAPGKGLEWVSAISGSGGSTYYADSVKGRFTISRDNTKNSLYLQMTSLRADDTAFYYCVKDFGPGYGTGWFDYWGPGTLVTVSS VL: AVNWYQQLPGKAPKLLIYAAGRCRASSGTGRCKQDSDCLAGCVCGPNGFCGANSGVSDRFSAAKSGTSASLAINGLRSEDEADYYCAAWDDSLNGYVFGTGTKLTVLG | 58000
20 | KB_A12_cMET_E04 (scFv, V domains shown) VH: EVQLVESGGGLVRPGGSLRLSCAASGFTFSSYAMSWVRQAPGKGLEWVSAISGSGGSTYYADSVKGRFTISRDNTKNSLYLQMTSLRADDTAFYYCVKDFGPGYGTGWFDYWGPGTLVTVSS VL: AVNWYQQLPGKAPKLLIYAAGRCGHLSGTGRCKQDSDCLAGCVCGPNGFCGANSGVSDRFSAAKSGTSASLAINGLRSEDEADYYCAAWDDSLNGYVFGTGTKLTVLG | 41300
21 | KB_A12_cMET_F06 (scFv, V domains shown) VH: EVQLVESGGGLVRPGGSLRLSCAASGFTFSSYAMSWVRQAPGKGLEWVSAISGSGGSTYYADSVKGRFTISRDNTKNSLYLQMTSLRADDTAFYYCVKDFGPGYGTGWFDYWGPGTLVTVSS VL: AVNWYQQLPGKAPKLLIYAAGRCPHQTGTGRCKQDSDCLAGCVCGPNGFCGANSGVSDRFSAAKSGTSASLAINGLRSEDEADYYCAAWDDSLNGYVFGTGTKLTVLG | 56200
22 | KB_A12_cMET_E01 (scFv, V domains shown) VH: EVQLVESGGGLVRPGGSLRLSCAASGFTFSSYAMSWVRQAPGKGLEWVSAISGSGGSTYYADSVKGRFTISRDNTKNSLYLQMTSLRADDTAFYYCVKDFGPGYGTGWFDYWGPGTLVTVSS VL: AVNWYQQLPGKAPKLLIYAAGRCNLTSGTGRCKQDSDCLAGCVCGPNGFCGANSGVSDRFSAAKSGTSASLAINGLRSEDEADYYCAAWDDSLNGYVFGTGTKLTVLG | 22400
